From publication doi:10.1101/2025.05.01.651538 (2025)

Tests used:
[1] = target: wild-type unmodified 147bp nucleosome (nucleosome core particle, human histones) (human)
[2] = target: wild-type 185bp nucleosome (nucleosome with symmetric flanking DNA, human histones) (human)

- Kd [1]: 4 µM
- Kd [2]: 3 µM
B1: KDM5A^CAT (KDM5A 1–801, minimal catalytically active construct) (domain or fragment)
chain: MAGVGPGGYAAEFVPPPECPVFEPSWEEFTDPLSFIGRIRPLAEKTGICKIRPPKDWQPPFACEVKSFRFTPRVQRLNELEAMTRVRLDFLDQLAKFWELQGSTLKIPVVERKILDLYALSKIVASKGGFEMVTKEKKWSKVGSRLGYLPGKGTGSLLKSHYERILYPYELFQSGVSLMGVQMPNLDLKEKVEPEVLSTDTQTSPEPGTRMNILPKRTRRVKTQSESGDVSRNTELKKLQIFGAGPKVVGLAMGTKDKEDEVTRRRKVTNRSDAFNMQMRQRKGTLSVNFVDLYVCMFCGRGNNEDKLLLCDGCDDSYHTFCLIPPLPDVPKGDWRCPKCVAEECSKPREAFGFEQAVREYTLQSFGEMADNFKSDYFNMPVHMVPTELVEKEFWRLVSSIEEDVIVEYGADISSKDFGSGFPVKDGRRKILPEEEEYALSGWNLNNMPVLEQSVLAHINVDISGMKVPWLYVGMCFSSFCWHIEDHWSYSINYLHWGEPKTWYGVPSHAAEQLEEVMRELAPELFESQPDLLHQLVTIMNPNVLMEHGVPVYRTNQCAGEFVVTFPRAYHSGFNQGYNFAEAVNFCTADWLPIGRQCVNHYRRLRRHCVFSHEELIFKMAADPECLDVGLAAMVCKELTLMTEEETRLRESVVQMGVLMSEEEVFELVPDDERQCSACRTTCFLSALTCSCNPERLVCLYHPTDLCPCPMQKKCLRYRYPLEDLPSLLYGVKVRAQSYDTWVSRVTEALSANFNHKKDLIELRVMLEDAEDRKYPENDLFRKLRDAVKEAETCASVAQLL
